Results taken from paper PMC10395824 (PLOS Pathogens, 2023).

Target: SARS-CoV-2 S1 RBD2 (Wuhan RBD, S-protein amino acids 319-541) (SARS-CoV-2 Wuhan, UniProt P0DTC2)
Assay: […] (150 mM NaCl, 20 mM Tris pH 7.5); […], MES pH 5.5, […]
Details: both partners purified

B1: Fab ICO-hu23 (Fab, V domains shown)
VH: EVQLVQSGAEVKKPGASVKVSCKASGYTFTGYYFHWVRQAPGQGLEWMGWINPISGGTKYAQKFQGWVTMTRATSISTVYMEVSRLRSDDTAVYYCARGHTYNWNYAYCDYWGQGTLVTVSS
VL: SYVLTQPASVSGSPGQSITISCTGTSSDVGVYNYVSWYQQHPGKAPKLMIYDVSNRPSGVSNRFSGSKSGNTASLTISGLQAEDEADYYCSSYTSSSTLVFGGGTKLTVL
B1: binds.
